The values below come from patent US20210171624A1 (ELIXIRON IMMUNOTHERAPEUTICS HONG KONG, published 2021).

The target in experiment [1] is T1, recombinant human IFN-γ protein (human, UniProt P01579 24-166, limits assumed).
T1 sequence: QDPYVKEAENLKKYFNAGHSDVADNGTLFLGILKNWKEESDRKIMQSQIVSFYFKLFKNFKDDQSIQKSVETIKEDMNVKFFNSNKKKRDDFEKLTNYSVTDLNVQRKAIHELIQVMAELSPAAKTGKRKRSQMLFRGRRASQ
Kind of experiment: ELISA, biotinylated human IFN-γ on streptavidin plate, HRP anti-human IgG, OD 450-650 nm. On the procedure: (§1) Recombinant human IFN-γ (R&D systems 285-IF-100) and Cynomolgus IFN-γ (R&D systems 961-RM-025) were biotinylated according to kit manual (EZ-Link NHS-LC-Biotin; Thermo #21336) and bound to streptavidin coated plate respectively. After incubated at room temperature for 1-2 hours, the plate was washed three times with 300 μL wash buffer. Serial dilutions of anti-IFN-γ antibody were added to wells. After incubated at room temperature for 1-2 hours, the plate was washed three times with 300 μL wash buffer. HRP anti-Human IgG was applied to each well at room temperature for 1 hour incubation. After washing, the plates were developed with TMB substrate, and analyzed under OD₄₅₀₋₆₅₀.

Experiment [2] concerns the target T1, recombinant human IFN-γ protein. Nature of the experiment: BLI (Octet RED96), mAb captured on AHC biosensor, recombinant human IFN-γ in solution, 1:1 model; second experiment. On the procedure:
(§2) Antibody-binding kinetic rate constants (kₐ and kd) were measured by Bio-Layer Interferometry (BLI, ForteBio Octet RED96). […] Rate constants were calculated by curve fitting analyses (1:1 Langmuir model) of binding response with a 5-minute association and 15-minute dissociation interaction time.

The target is the same in experiment [3]. Kind of experiment: cell-based or functional assay.
For another experiment, the target named is T2, bovine serum albumin (bovine, UniProt P02769 25-607).
T2 construct: also called BSA
Nature of the experiment: ELISA, plate coated with 2 µg/mL BSA, anti-human IgG Fc-AP detection, OD 405 nm. On the procedure: A clear polystyrene 96-well, flat-bottomed plate (Nunc) was coated with 100 μL of recombinant human IFN-γ protein (2 μg/mL) or BSA (2 μg/mL) in bicarbonate buffer (pH 9.6) per well and incubated at 4° C. overnight. The plate was washed three times using phosphate-buffered saline (PBS) with 0.05% Tween 20 and then blocked with 5% human normal serum albumin (Aventis) in PBS for 2 hours at 25° C. The plate was washed again using PBS with 0.05% Tween 20, after which each of 1E8, 2F2, 2A6, 2B6, AB and BA mAbs in two different concentrations of 1 μg/mL and 0.1 μg/mL were added into the wells of the plate for binding with the recombinant human IFN-γ protein, followed by reaction at 25° C. for 2 hours. The plate was thoroughly washed using PBS with 0.05% Tween 20, and then Fc-specific alkaline phosphatase-conjugated AffiniPure Goat anti-human IgG (Cappel) was added at a dilution ratio of 1:2500. The plate was placed for 90 minutes at 37° C. and then washed five times using PBS with 0.05% Tween 20. After adding p-Nitrophenyl phosphate (pNPP) solution (100 μL/well), the plate was placed at 37° C. for 30 minutes. Absorbance was determined at OD405 nm with a VICTOR X3 Multilabel Plate Reader (PerkinElmer).

Experiment [4] deals with T1, recombinant human IFN-γ protein. Kind of experiment: BLI (Octet RED96), mAb captured on AHC biosensor, recombinant human IFN-γ in solution, 1:1 model. The procedure: as §2
The target in experiment [5] is T3, rhesus macaque/cynomolgus IFN-γ (rhesus macaque/cynomolgus, UniProt P63310 24-165).
T3 construct: also called R&D systems 961-RM-025
T3 sequence (looked up): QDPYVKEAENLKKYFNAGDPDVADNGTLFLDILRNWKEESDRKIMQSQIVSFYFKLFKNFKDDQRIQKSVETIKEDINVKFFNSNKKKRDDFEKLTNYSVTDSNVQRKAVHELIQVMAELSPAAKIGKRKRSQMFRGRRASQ
Nature of the experiment: ELISA, biotinylated rhesus macaque/cynomolgus IFN-γ on streptavidin plate, HRP anti-human IgG, OD 450-650 nm. The procedure: as §1

T2 sequence (P02769 25-607 limits assumed): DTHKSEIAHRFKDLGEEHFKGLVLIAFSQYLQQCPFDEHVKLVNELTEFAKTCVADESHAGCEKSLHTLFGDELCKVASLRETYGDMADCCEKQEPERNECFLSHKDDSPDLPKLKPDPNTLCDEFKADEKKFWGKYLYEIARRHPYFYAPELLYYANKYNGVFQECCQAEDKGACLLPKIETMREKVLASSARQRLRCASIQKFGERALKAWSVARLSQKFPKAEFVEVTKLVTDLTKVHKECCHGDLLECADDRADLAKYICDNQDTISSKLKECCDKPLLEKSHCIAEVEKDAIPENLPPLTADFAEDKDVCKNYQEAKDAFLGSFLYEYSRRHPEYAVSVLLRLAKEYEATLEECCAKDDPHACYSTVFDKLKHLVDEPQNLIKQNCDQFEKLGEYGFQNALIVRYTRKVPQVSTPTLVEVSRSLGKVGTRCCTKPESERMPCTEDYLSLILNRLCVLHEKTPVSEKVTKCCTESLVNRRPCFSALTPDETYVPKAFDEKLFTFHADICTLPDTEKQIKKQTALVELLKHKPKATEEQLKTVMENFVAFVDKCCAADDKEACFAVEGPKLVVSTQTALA

Take AMG811 (antibody): the EC50 (read off the curve) in experiment [1] came out at 5 ng/mL. In addition, in experiment [2], the Kd was determined as 34.7 pM, the off-rate constant (koff) turned out to be 8.59e-05 s⁻¹ and the association rate constant (kon) came to 2.48e+06 M⁻¹ s⁻¹.

B1: antibody 2A6 (antibody, human IgG1, V domains shown)
VH: EVQLVESGGGLVKPGDSLTVSCVASGFTFSNYFIHWVRQAPGKGLEWVATISGRTKYMFYSDSLRGRFTVSRDNANNSVYLHMSSLRGEDTALYYCVRGYDHSDSNSAADLLHWGRGTLVTVSS
VL: NFMLTQPLSVSGYPGKTIVISCVRSSGSVASHYVQWFQQRPGSAPAMVIYEDSHRPSGIPDRFSGSVDASSNSASLTISGLKTEDEADYFCQSYYGNNQVLFGGGTKLTVL
modifications: partial N-linked glycosylation at Asn-76 of the VH
notes: Human antibody from a single B cell, cloned into human IgG1 lambda expression vectors and made in FreeStyle 293-F cells
As to B1, in experiment [3], the “IC50, inhibition of IFN-γ induced HLA-DR expression on THP-1 cells” value (“IC50, inhibition” for short) is 3.4 ng/mL and the “IC90, inhibition of IFN-γ induced HLA-DR expression on THP-1 cells” value (from here on “IC90, inhibition”) is 3850 ng/mL. For the same molecule, the binding result in the experiment with bovine serum albumin is reported as “no binding (tested: 1.0 µg/mL)”. In addition, in experiment [4], the Kd stood at 36.8 pM, the koff was found to be 3.97e-05 s⁻¹ and the association rate constant (kon) was determined as 1.08e+06 M⁻¹ s⁻¹. Moreover, in experiment [1], the half-maximal effective concentration (EC50 (read off the curve)) is ~7 ng/mL. Besides, in experiment [2], the Kd was 18.7 pM, the koff is 4.9e-05 s⁻¹ and the on-rate (kon) is 2.61e+06 M⁻¹ s⁻¹. The “EC50 (read off the curve)” value in experiment [5] was ~5 ng/mL.

B2: antibody AB (antibody, human IgG1, V domains shown)
VH: EVQLVESGGGLVKPGDSLTVSCVASGFTFSNYFIHWVRQAPGKGLEWVATISGRTKYMFYSDSLRGRFTVSRDNANNSVYLHMSSLRGEDTALYYCVRGYDHSDSNSAADLLHWGRGTLVTVSS
VL: NFMLTQPHSVSESPGKTITISCTRGRGYIASYYVQWYQQRPGGVPKIVVFEDTQRPSGVPDRISGSIDTSTNSASLTISGLQTEDEADYYCQSYDDANHVIFGGGTKLTVL
notes: Combination of the 2A6 VH heavy chain and the 2B6 VL light chain; human IgG1 lambda; also called VH2A6/VL2B6
In the case of B2, the binding result in the experiment with bovine serum albumin is on record as “no binding (tested: 1.0 µg/mL)”. For the same molecule, the “EC50 (read off the curve)” value in experiment [1] is ~7 ng/mL. Also, in experiment [2], the Kd came out at 25 pM, the koff stood at 5.46e-05 s⁻¹ and the kon is 2.19e+06 M⁻¹ s⁻¹. Moreover, the concentration for a half-maximal effect (EC50 (read off the curve)) in experiment [5] was ~5 ng/mL.

B3: antibody BA (antibody, human IgG1, V domains shown)
VH: EVQLVESGGGLVKPGGSLRLSCAASGFPFSRYSMHWVRQAPGKGLEWVSSMTSRTNHKYYADSLKGRFLISRDNDRDSLYLEMNSLGVEDTAIYFCARGYDTSGSDSGVDFQYWGQGTLVTVSS
VL: NFMLTQPLSVSGYPGKTIVISCVRSSGSVASHYVQWFQQRPGSAPAMVIYEDSHRPSGIPDRFSGSVDASSNSASLTISGLKTEDEADYFCQSYYGNNQVLFGGGTKLTVL
notes: Combination of the 2B6 VH heavy chain and the 2A6 VL light chain; human IgG1 lambda; also called VH2B6/VL2A6
Consider B3, for which the binding result in the experiment with bovine serum albumin is given as “no binding (tested: 1.0 µg/mL)”.

B4: antibody 2A6_Q (antibody, human IgG1, V domains shown)
VH: EVQLVESGGGLVKPGDSLTVSCVASGFTFSNYFIHWVRQAPGKGLEWVATISGRTKYMFYSDSLRGRFTVSRDNAQNSVYLHMSSLRGEDTALYYCVRGYDHSDSNSAADLLHWGRGTLVTVSS
VL: NFMLTQPLSVSGYPGKTIVISCVRSSGSVASHYVQWFQQRPGSAPAMVIYEDSHRPSGIPDRFSGSVDASSNSASLTISGLKTEDEADYFCQSYYGNNQVLFGGGTKLTVL
notes: removes the N-glycosylation site of the VH; human IgG1 lambda; also called c2A6_Q
Take B4: the “EC50 (read off the curve)” value in experiment [1] was ~7 ng/mL. Besides, in experiment [2], the Kd was found to be 21.7 pM, the off-rate (koff) was determined as 5.23e-05 s⁻¹ and the kon came to 2.41e+06 M⁻¹ s⁻¹. In addition, the “EC50 (read off the curve)” value in experiment [5] was ~5 ng/mL.

B5: antibody 2A6_A (antibody, human IgG1, V domains shown)
VH: EVQLVESGGGLVKPGDSLTVSCVASGFTFSNYFIHWVRQAPGKGLEWVATISGRTKYMFYSDSLRGRFTVSRDNAANSVYLHMSSLRGEDTALYYCVRGYDHSDSNSAADLLHWGRGTLVTVSS
VL: NFMLTQPLSVSGYPGKTIVISCVRSSGSVASHYVQWFQQRPGSAPAMVIYEDSHRPSGIPDRFSGSVDASSNSASLTISGLKTEDEADYFCQSYYGNNQVLFGGGTKLTVL
notes: removes the N-glycosylation site of the VH; human IgG1 lambda; also called c2A6_A
B5: the “EC50 (read off the curve)” value in experiment [1] is ~7 ng/mL. Also, in experiment [2], the Kd stood at 22.3 pM, the off-rate constant (koff) amounted to 5.17e-05 s⁻¹ and the kon was found to be 2.32e+06 M⁻¹ s⁻¹. Moreover, the 50% effective concentration (EC50 (read off the curve)) in experiment [5] was ~5 ng/mL.

B6: antibody 2F2 (antibody, human IgG1, V domains shown)
VH: EVQLVESGGGLVKPGESLRLACVASGFNFSDYYMTWIRQAPGKGLEWVSYISNSGSHTYYADAVKGRFTVSRDNAKNSLYLQMTSLRGEDTAIYFCARDPSIMRGTYYMDVWGKGTTVTVSS
VL: QSVLTQPPSASGTPGQRVTISCSGSSSNIGTNPVSWYQQFPGMAPKLLIYFNNQRPSGVPERFSGSKSGTPASLAIGGLQSEDEANYYCASWDDTLNGLVFGGGTKLTVL
notes: Human IgG1 lambda
B6: in experiment [3], the “IC50, inhibition” value stood at 36.1 ng/mL and the “IC90, inhibition” value worked out at 508 ng/mL. The binding result with bovine serum albumin was “no binding (tested: 1.0 µg/mL)”. Besides, in experiment [4], the dissociation constant (Kd) is 317 pM, the dissociation rate constant (koff) came to 0.000109 s⁻¹ and the kon was determined as 344000 M⁻¹ s⁻¹.

B7: antibody 1E8 (antibody, human IgG1, V domains shown)
VH: EVQLLESGGGLVQPGGPLRLSCAASGFTFSIYSMNWVRQAPGKGLEWVSSISGSGDNTYYADSVKGRFTITRDSSKNTLYLQMNTLRAEDTAVYFCAKSGRNIISPGFDSWGQGTLVTVSS
VL: QPVLTQPPSASASLGASVTLTCTLNSDYGDYKVDWYQQRPGKGPRFVMRVGTGGIVGSKGDGIPDRFSVLGSGLNRFLTIKNIQEEDESDYYCGADHGSANNFIWVFGGGTKLTVL
notes: Human IgG1 lambda
As for B7, in experiment [3], the “IC50, inhibition” value was 8.6 ng/mL and the “IC90, inhibition” value is 48.6 ng/mL. Also, in the experiment with bovine serum albumin, the binding result was “no binding (tested: 1.0 µg/mL)”. In experiment [4], the dissociation constant (Kd) worked out at 261 pM, the off-rate (koff) was 0.000121 s⁻¹ and the kon was found to be 464000 M⁻¹ s⁻¹.

B8: antibody 2B6 (antibody, human IgG1, V domains shown)
VH: EVQLVESGGGLVKPGGSLRLSCAASGFPFSRYSMHWVRQAPGKGLEWVSSMTSRTNHKYYADSLKGRFLISRDNDRDSLYLEMNSLGVEDTAIYFCARGYDTSGSDSGVDFQYWGQGTLVTVSS
VL: NFMLTQPHSVSESPGKTITISCTRGRGYIASYYVQWYQQRPGGVPKIVVFEDTQRPSGVPDRISGSIDTSTNSASLTISGLQTEDEADYYCQSYDDANHVIFGGGTKLTVL
notes: Human IgG1 lambda
Consider B8, for which, in experiment [3], the “IC50, inhibition” value is 3.5 ng/mL and the “IC90, inhibition” value was found to be 1020 ng/mL. Moreover, the binding result with bovine serum albumin is given as “no binding (tested: 1.0 µg/mL)”. In addition, in experiment [4], the dissociation constant Kd was 73.1 pM, the koff came to 0.000108 s⁻¹ and the kon came to 1.48e+06 M⁻¹ s⁻¹. In experiment [1], the “EC50 (read off the curve)” value is ~7 ng/mL. Moreover, in experiment [2], the Kd was determined as 17.2 pM, the dissociation rate constant (koff) was 5.4e-05 s⁻¹ and the kon is 3.13e+06 M⁻¹ s⁻¹. Besides, the “EC50 (read off the curve)” value in experiment [5] was ~5 ng/mL.
